Data from publication doi:10.1101/728907 (bioRxiv, 2019).

Target: T1, GFLV-derived virus-like particles (VLP) in which enhanced GFP is encaged (Grapevine fanleaf virus, isolate not …)
T1 chain: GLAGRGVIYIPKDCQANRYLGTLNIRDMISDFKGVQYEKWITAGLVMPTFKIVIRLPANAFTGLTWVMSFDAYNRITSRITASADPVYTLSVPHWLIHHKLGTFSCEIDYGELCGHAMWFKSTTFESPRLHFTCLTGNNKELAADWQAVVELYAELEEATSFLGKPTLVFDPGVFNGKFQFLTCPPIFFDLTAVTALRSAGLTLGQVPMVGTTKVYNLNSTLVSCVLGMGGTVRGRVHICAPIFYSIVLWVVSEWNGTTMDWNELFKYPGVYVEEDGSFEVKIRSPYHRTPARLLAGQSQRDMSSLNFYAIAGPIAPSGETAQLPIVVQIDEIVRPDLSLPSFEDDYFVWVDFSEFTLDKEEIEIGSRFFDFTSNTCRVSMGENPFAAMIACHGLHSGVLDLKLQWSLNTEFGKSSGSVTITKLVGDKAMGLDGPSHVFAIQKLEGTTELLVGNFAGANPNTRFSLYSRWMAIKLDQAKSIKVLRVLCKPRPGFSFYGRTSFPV
Experiment: MST

B1: Nanobody Nb23 specific to GFLV (VHH)
VHH: QVQLQESGGGSVQVGGSLRVACAASGDTFSGYLAAWFRQAPGKGREGVAAINSKRHTTSYADSVKGRFTISKDNADNIMYLEMNSLKPEDTAIYYCAAADAIGLAEYWSTPTLSAARYKYWGQGTQVTVSS
- Kd: 9.13 nM
